Data on 1 substance can be found in PMC2794200.

The assay addresses GST-Trs33, bacterially expressed (S. cerevisiae) (UniProt Q99394). Briefly: pull-down.
Sequence of UniProt Q99394 (Q99394 whole entry): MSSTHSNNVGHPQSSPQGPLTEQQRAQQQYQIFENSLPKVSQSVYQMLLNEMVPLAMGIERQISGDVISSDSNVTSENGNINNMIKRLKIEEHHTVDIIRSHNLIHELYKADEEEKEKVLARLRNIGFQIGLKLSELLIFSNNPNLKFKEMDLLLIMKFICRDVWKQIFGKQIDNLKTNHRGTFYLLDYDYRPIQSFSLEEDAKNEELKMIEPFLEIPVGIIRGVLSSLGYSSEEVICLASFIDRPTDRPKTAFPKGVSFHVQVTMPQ

“Trs130-HA, bacterially expressed (from UniProt Q03660 1-1102) (natural protein)”: the percent co-precipitated came out at 0.5%.
